Data on two molecules can be found in paper PMC8173604 (Cell, 2021).

Broadly, the IC50 is the point on the concentration scale where inhibition reaches its midpoint.

This test addresses purified HLA-A*02:01 MHC molecule (human | ). The experiment in a line: radioligand binding.

Take MLLGSMLYM [MLLGSMLYM, HLA-I peptide from S.iORF1/2]: the IC50 was under 0.5 nM.
The result for GLITLSYHL [GLITLSYHL, HLA-I peptide from S.iORF1/2] reads under 0.5 nM.
